Results on three sequences are retold here after the Immune Epitope Database (IEDB).

A value given as a limit tells only on which side of the number the result lay.

Common to all, as to assay: IEDB peptide-MHC binding, cellular MHC/competitive/fluorescence; ≥ and ≤ were set here for values at or beyond the usual limits of such assays
One assay concerns the target HLA-A*02:04.
The target in another assay is HLA-A*02:02. As to conditions: source organism: Human papillomavirus 16.
The target in another assay is HLA-A*02:03. The following applies: source organism: Human papillomavirus 16.
In the next assay the target is HLA-A*02:05. As to conditions: source organism: Human papillomavirus 16.
The next assay concerns the target HLA-A*02:06. The following applies: source organism: Human papillomavirus 16.
[1] abbreviates: source organism: Human papillomavirus 16.

For orientation: IC50 means the concentration that inhibits the measured activity by half. For FLPSDFFPSV, the half-inhibitory concentration (IC50) in the assay with HLA-A*02:04 (source organism: Hepatitis B virus) worked out at 1 µM.
Take TLGIVCPI: the half-inhibitory concentration (IC50) in the assay with HLA-A*02:02 was 4 µM; with HLA-A*02:03 it was 2 µM; in the assay with HLA-A*02:04 (setting [1]) it was 4 µM; in the assay with HLA-A*02:05, at least 20 µM; with HLA-A*02:06 it was 28 µM.
Take YMLDLQPETT: the IC50 is 6 µM with HLA-A*02:02; 5 µM with HLA-A*02:03; 11 µM with HLA-A*02:04 (setting [1]); at least 100 µM with HLA-A*02:05; at least 70 µM in the assay with HLA-A*02:06.
